Experimental data: doi:10.1101/749176, “ZapA tetramerization is required for midcell localization and ZapB interaction in Escherichia coli” (bioRxiv, 2019)
Substitutions are numbered along the chain they refer to. Numbers in names are those of the source.

T1: mKO-FtsZ (Escherichia coli, UniProt P0A9A6 1-383)
T1 construct: FtsZ, Escherichia coli; also called Filamenting temperature sensitive Z; source: E. coli TB28 ΔzapA or WT strain, expressed from plasmid, in living cells
T1 sequence (looked up): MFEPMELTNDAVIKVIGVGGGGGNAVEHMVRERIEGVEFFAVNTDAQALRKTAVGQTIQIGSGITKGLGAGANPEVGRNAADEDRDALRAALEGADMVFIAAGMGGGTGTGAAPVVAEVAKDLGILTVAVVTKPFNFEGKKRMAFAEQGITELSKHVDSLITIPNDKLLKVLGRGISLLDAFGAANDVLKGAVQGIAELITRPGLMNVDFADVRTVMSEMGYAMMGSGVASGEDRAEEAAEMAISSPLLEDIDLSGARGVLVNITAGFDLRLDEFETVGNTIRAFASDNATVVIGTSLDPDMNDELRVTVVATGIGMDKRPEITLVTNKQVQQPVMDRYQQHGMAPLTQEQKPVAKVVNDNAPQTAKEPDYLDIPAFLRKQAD

T2: mKO-PBP1a (Escherichia coli, UniProt P02918 1-850)
T2 construct: PBP1a, inner membrane (IM) protein, Escherichia coli; Negative control partner of the FRET assay; source: E. coli TB28 ΔzapA, expressed from plasmid, in living cells
T2 sequence (looked up): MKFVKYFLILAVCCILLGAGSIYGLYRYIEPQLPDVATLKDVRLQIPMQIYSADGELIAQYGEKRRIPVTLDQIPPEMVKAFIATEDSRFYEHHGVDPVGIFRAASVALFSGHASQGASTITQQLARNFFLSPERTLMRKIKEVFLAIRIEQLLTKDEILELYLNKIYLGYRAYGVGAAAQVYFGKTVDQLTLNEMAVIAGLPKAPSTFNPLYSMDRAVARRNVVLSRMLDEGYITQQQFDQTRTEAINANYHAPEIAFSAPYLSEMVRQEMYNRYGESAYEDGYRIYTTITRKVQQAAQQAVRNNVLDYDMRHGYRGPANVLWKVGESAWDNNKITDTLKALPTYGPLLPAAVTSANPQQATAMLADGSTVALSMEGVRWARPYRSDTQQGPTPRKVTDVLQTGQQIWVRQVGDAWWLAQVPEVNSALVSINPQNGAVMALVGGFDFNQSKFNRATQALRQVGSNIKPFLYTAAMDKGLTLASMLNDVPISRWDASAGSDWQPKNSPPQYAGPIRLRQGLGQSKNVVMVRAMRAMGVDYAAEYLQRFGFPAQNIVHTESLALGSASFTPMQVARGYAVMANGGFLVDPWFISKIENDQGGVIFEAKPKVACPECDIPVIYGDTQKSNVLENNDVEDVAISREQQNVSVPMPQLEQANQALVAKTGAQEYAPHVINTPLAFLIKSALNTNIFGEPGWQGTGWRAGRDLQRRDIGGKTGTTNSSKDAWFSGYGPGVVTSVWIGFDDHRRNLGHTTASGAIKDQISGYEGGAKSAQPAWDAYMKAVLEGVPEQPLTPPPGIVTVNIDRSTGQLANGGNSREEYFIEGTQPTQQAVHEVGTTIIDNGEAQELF

B1: mCh-ZapA (wild type ZapA fused to mCh) (natural protein, Escherichia coli, UniProt P0ADS2 1-109, looked up)
chain: MSAQPVDIQIFGRSLRVNCPPDQRDALNQAADDLNQRLQDLKERTRVTNTEQLVFIAALNISYELAQEKAKTRDYAASMEQRIRMLQQTIEQALLEQGRITEKTNQNFE
notes: ZapA (Z associated protein A), Escherichia coli; zapA in plasmid pSAV077; also called mCh-ZapA^WT; ZapA^WT; source: E. coli TB28 ΔzapA or WT strain, expressed from plasmid, in living cells
B2: mCh-ZapA^I83E (dimeric ZapA mutant fused to mCh) (natural protein, Escherichia coli, UniProt P0ADS2 1-109, looked up)
chain: B1 chain with I83E
notes: ZapA (Z associated protein A), Escherichia coli, with I83E; zapA of pSAV077 exchanged for zapA^I83E from pRP071; source: E. coli TB28 ΔzapA or WT strain, expressed from plasmid pNM137, in living cells
B3: mCh-PBP1b (natural protein, Escherichia coli, UniProt P02919 1-844, looked up)
chain: MAGNDREPIGRKGKPTRPVKQKVSRRRYEDDDDYDDYDDYEDEEPMPRKGKGKGKGRKPRGKRGWLWLLLKLAIVFAVLIAIYGVYLDQKIRSRIDGKVWQLPAAVYGRMVNLEPDMTISKNEMVKLLEATQYRQVSKMTRPGEFTVQANSIEMIRRPFDFPDSKEGQVRARLTFDGDHLATIVNMENNRQFGFFRLDPRLITMISSPNGEQRLFVPRSGFPDLLVDTLLATEDRHFYEHDGISLYSIGRAVLANLTAGRTVQGASTLTQQLVKNLFLSSERSYWRKANEAYMALIMDARYSKDRILELYMNEVYLGQSGDNEIRGFPLASLYYFGRPVEELSLDQQALLVGMVKGASIYNPWRNPKLALERRNLVLRLLQQQQIIDQELYDMLSARPLGVQPRGGVISPQPAFMQLVRQELQAKLGDKVKDLSGVKIFTTFDSVAQDAAEKAAVEGIPALKKQRKLSDLETAIVVVDRFSGEVRAMVGGSEPQFAGYNRAMQARRSIGSLAKPATYLTALSQPKIYRLNTWIADAPIALRQPNGQVWSPQNDDRRYSESGRVMLVDALTRSMNVPTVNLGMALGLPAVTETWIKLGVPKDQLHPVPAMLLGALNLTPIEVAQAFQTIASGGNRAPLSALRSVIAEDGKVLYQSFPQAERAVPAQAAYLTLWTMQQVVQRGTGRQLGAKYPNLHLAGKTGTTNNNVDTWFAGIDGSTVTITWVGRDNNQPTKLYGASGAMSIYQRYLANQTPTPLNLVPPEDIADMGVDYDGNFVCSGGMRILPVWTSDPQSLCQQSEMQQQPSGNPFDQSSQPQQQPQQQPAQQEQKDSDGVAGWIKDMFGSN
notes: PBP1b, Escherichia coli; Negative control of the FRET assay; source: E. coli TB28 ΔzapA, expressed from plasmid, in living cells

Experiments:
[1] = biological target: T1, mKO-FtsZ; assay: FRET or BRET; in vivo FRET in E. coli TB28 ΔzapA cells, mKO donor and mCh acceptor fusions expressed from plasmids; energy transfer efficiency (EfA) from unmixed emission spectra; settings: partners not purified
[2] = biological target: T2, mKO-PBP1a; assay: as above; settings: partners not purified

Binder | energy transfer efficiency (EfA) [1] [%] | energy transfer efficiency (EfA) [2] [%]
B1 | 4 | < 1.7
B2 | – | < 1.7
B3 | – | < 1.7
